Patent publication US20110243954A1 (published 2011)

B1: 12A2 sv1-AAA-12A2 sv1-9GS-59C2 (vWF-0055) (VHH)
chain: DVQLVESGGGLVQPGGSLRLSCAASGRTFSYNPMGWFRQAPGKGRELVAAISRTGGSTYYPESVEGRFTISRDNAKRTVYLQMNSLRAEDTAVYYCAAAGVRAEQGRVRTLPSEYTFWGQGTQVTVSSAAAEVQLVESGGGLVQPGGSLRLSCAASGRTFSYNPMGWFRQAPGKGRELVAAISRTGGSTYYPESVEGRFTISRDNAKRTVYLQMNSLRAEDTAVYYCAAAGVRAEQGRVRTLPSEYTFWGQGTQVTVSSGGGGSGGGSRDWDFDVFGGGTPVGG
notes: bivalent anti-vWF Nanobody with one C-terminal 59C2 peptide
B2: 12A2 sv1-AAA-12A2 sv1-9GS-59C2-9GS-59C2 (vWF-0056) (VHH)
chain: DVQLVESGGGLVQPGGSLRLSCAASGRTFSYNPMGWFRQAPGKGRELVAAISRTGGSTYYPESVEGRFTISRDNAKRTVYLQMNSLRAEDTAVYYCAAAGVRAEQGRVRTLPSEYTFWGQGTQVTVSSAAAEVQLVESGGGLVQPGGSLRLSCAASGRTFSYNPMGWFRQAPGKGRELVAAISRTGGSTYYPESVEGRFTISRDNAKRTVYLQMNSLRAEDTAVYYCAAAGVRAEQGRVRTLPSEYTFWGQGTQVTVSSGGGGSGGGSRDWDFDVFGGGTPVGGGGGGSGGGSRDWDFDVFGGGTPVGG
notes: bivalent anti-vWF Nanobody with a C-terminal tandem repeat of 59C2

target: T1, human serum albumin (human, UniProt P02768 25-609); test: solution binding competition ELISA: phage pre-incubated with 1 µM HSA, unbound phage captured on coated HSA; signal with competitor / without
T1 construct: HSA used in ELISA and SPR was bought (Sigma); also called HSA
Protocol: (§1) A competition ELISA was performed to determine the relative binding affinity for the selected phage clones. 96-well Nunc Maxisorp plates were coated with 2 μg/ml HSA in coating buffer at 4° C. Plates were blocked with SuperblockT20 (Pierce) for 1 h at room temperature. The microtiter plates were washed with wash buffer (PBS, 0.05% Tween 20).
Unbound phage was captured by transferring 100 μl of the well mixture to the HSA coated Maxisorp plate and incubating at room temperature for 30 minutes. The plate with captured phage was washed with PBS-0.05% Tween 20 five times. Bound phages were detected with anti-M13 and goat-anti mouse IRDye conjugate. The amount of IRDye bound was measured on Odyssey (LI-COR Biosciences). The ratio of phage binding was calculated by the following equation: fluorescence signal of well with competitor/fluorescence signal of well with no competitor (Table III).

Ratio 1 µM/0 µM HSA | Binder
0.47 ratio | AALYDDYDVFGGGTPVGG (also called 01C7; PMP26A3 (in the text)) [PMP56A3]
0.43 ratio | AAFYDDYDVFGGGTPAGG (also called 01G7; PMP54H5 (in the text)) [PMP56H5]
0.42 ratio | AALYDDYDVFGGGTPAGG [01B3]

target: T2, von Willebrand factor (human, UniProt P04275 764-2813); test: inhibition ELISA of ristocetin-induced binding of vWF to platelets
T2 construct: also called vWF; VWF
Protocol: After 3 times washing with phosphate buffered saline (PBS), wells were incubated for 1 hour at room temperature (RT) with formalin fixed human platelets (Dade Behring, Newark, Del.) which were diluted two-fold in PBS or—as a blank—with PBS. Wells were washed 3 times with PBS and blocked for 2 hours at RT with PBS containing 4% bovine serum albumin (BSA, Sigma). A dilution series of compound was prepared in human plasma and was preincubated for 30 min at RT with 1.5 mg/mL ristocetin (abp, NJ, USA) after which the mixture was transferred to the coated wells. […] For the analysis of the data, the absorbance values were corrected using the absorbance of the respective blanks.

binding result | Binder
binds | B1
binds | B2

target: T1, human serum albumin; test: phage competition ELISA: signal of well with 2 µM HSA competitor / signal of well with no competitor
Protocol: as §1
After respectively three and four selection rounds, monoclonal phage were screened for binding on HSA, in the manner described in Example 2. […] The ratio of phage binding was calculated by the following equation: fluorescence signal of well with 2 μM competitor/fluorescence signal of well with no competitor (Table VI).

Ratio 2 µM/0 µM HSA | Binder
0.82 ratio | AARYWDYDVFGGGTPVGG (also called EXP56E4) [PMP56E4]
0.91 ratio | AARDWDFDVFGGGTPVGG (also called EXP59C2) [59C2]
0.87 ratio | AARSWDFDVFGGGTPVGG [59H12]
0.69 ratio | AARYWDFDVFGGGTPVGG [59F2]
